Assays:
Assay in all cases: cell-based or functional assay
[1] = target: HIV-1 JR-CSF Env N302A (HIV-1 JR-CSF) (UniProt P20871)
[2] = target: HIV-1 JR-CSF Env N392Q (HIV-1 (isolate JR-CSF)) (UniProt P20871)
[3] = target: HIV-1 JR-CSF Env I414A (HIV-1 (isolate JR-CSF)) (UniProt P20871)
[4] = target: HIV-1 JR-CSF Env P299A (HIV-1 JR-CSF) (UniProt P20871)
[5] = target: HIV-1 MGRM-C-026 envelope glycoprotein (Env) (HIV-1)
[6] = target: HIV-1 JR-CSF Env R327A (HIV-1 isolate JR-CSF) (UniProt P20871)
[7] = target: HIV-1 Env of isolate 93UG077 (HIV-1)
[8] = target: HIV-1 Env of isolate MGRM-A-004 (HIV-1)
[9] = target: Env of the clade AG HIV-1 pseudoviruses of the cross-clade 162-pseudovirus panel (n = 10)
[10] = target: HIV-1 JR-CSF Env I423A (HIV-1 (isolate JR-CSF)) (UniProt P20871)
[11] = target: HIV-1 JR-CSF Env K305A (HIV-1 JR-CSF) (UniProt P20871)
[12] = target: HIV-1 JR-CSF Env R304A (HIV-1 JR-CSF) (UniProt P20871)
[13] = target: HIV-1 JR-CSF Env T202A (HIV-1 JR-CSF) (UniProt P20871)
[14] = target: HIV-1 JR-CSF Env I424A (HIV-1 (isolate JR-CSF)) (UniProt P20871)
[15] = target: HIV-1 JR-CSF Env L416A (HIV-1 (isolate JR-CSF)) (UniProt P20871)
[16] = target: HIV-1 Env of isolate MGRM-A-001 (HIV-1)
[17] = target: HIV-1 JR-CSF Env T413A (HIV-1 (isolate JR-CSF)) (UniProt P20871)
[18] = target: HIV-1 JR-CSF Env I323A (HIV-1 isolate JR-CSF) (UniProt P20871)
[19] = target: HIV-1 JRFL envelope glycoprotein (Env) (HIV-1)
[20] = target: HIV-1 JR-CSF Env I415A (HIV-1 (isolate JR-CSF)) (UniProt P20871)
[21] = target: HIV-1 JR-CSF Env Q422A (HIV-1 (isolate JR-CSF)) (UniProt P20871)
[22] = target: HIV-1 Env of isolate MGRM-A-010 (HIV-1)
[23] = target: HIV-1 JR-CSF Env S387A (HIV-1 (isolate JR-CSF)) (UniProt P20871)
[24] = target: HIV-1 JR-CSF Env S306A (HIV-1 JR-CSF) (UniProt P20871)
[25] = target: HIV-1 JR-CSF Env W395A (HIV-1 (isolate JR-CSF)) (UniProt P20871)
[26] = target: HIV-1 Env of isolate MGRM-A-009 (HIV-1)
[27] = target: HIV-1 JR-CSF Env G324A (HIV-1 isolate JR-CSF) (UniProt P20871)
[28] = target: HIV-1 JR-CSF Env V292A (HIV-1 JR-CSF) (UniProt P20871)
[29] = target: HIV-1 JR-CSF Env K421A (HIV-1 (isolate JR-CSF)) (UniProt P20871)
[30] = target: HIV-1 JR-CSF Env I326A (HIV-1 isolate JR-CSF) (UniProt P20871)
[31] = target: HIV-1 JR-CSF Env Q337A (HIV-1 isolate JR-CSF) (UniProt P20871)
[32] = target: HIV-1 JR-CSF Env T319A (HIV-1 isolate JR-CSF) (UniProt P20871)
[33] = target: Env of the clade B HIV-1 pseudoviruses of the cross-clade 162-pseudovirus panel (n = 31)
[34] = target: HIV-1 Env of isolate MGRM-A-008 (HIV-1)
[35] = target: Env of all HIV-1 pseudoviruses of the cross-clade 162-pseudovirus panel (n = 162)
[36] = target: HIV-1 JR-CSF Env N396A (HIV-1 (isolate JR-CSF)) (UniProt P20871)
[37] = target: HIV-1 JR-CSF Env N332A (HIV-1 isolate JR-CSF) (UniProt P20871)
[38] = target: HIV-1 JR-CSF Env N241A (HIV-1 JR-CSF) (UniProt P20871)
[39] = target: HIV-1 Env of isolate 92WR020 (HIV-1)
[40] = target: HIV-1 JR-CSF Env D417A (HIV-1 (isolate JR-CSF)) (UniProt P20871)
[41] = target: HIV-1 JR-CSF Env N355A (HIV-1 isolate JR-CSF) (UniProt P20871)

B1: PGT-126 (antibody, V domains shown)
VH: QPQLQESGPGLVEASETLSLTCTVSGDSTAACDYFWGWVRQPPGKGLEWIGGLSHCAGYYNTGWTYHNPSLKSRLTISLDTPKNQVFLKLNSVTAADTAIYYCARFDGEVLVYHDWPKPAWVDLWGRGTLVTVSS
VL: QSALTQPPSASGSPGQSISISCTGTSNRFVSWYQQHPGKAPKLVIYGVNKRPSGVPDRFSGSKSGNTASLTVSGLQTDDEAVYYCSSLVGNWDVIFGGGTKLTVL
Fold IC50 increase relative to wild-type [1]: 0.9 fold
Fold IC50 increase relative to wild-type [2]: 1.6 fold
Fold IC50 increase relative to wild-type [3]: 0.4 fold
Fold IC50 increase relative to wild-type [4]: 0.2 fold
IC50 neutralization [5]: 0.0076 µg/mL
Fold IC50 increase relative to wild-type [6]: 2.2 fold
IC50 (µg/mL), pseudovirus neutralization [7]: 0.02 µg/mL
IC50 (µg/mL), pseudovirus neutralization [8]: > 50 µg/mL
Median IC50 against viruses neutralized with an IC50 <50 µg/ml [9]: 0.03 µg/mL
Fold IC50 increase relative to wild-type [10]: 1.1 fold
Fold IC50 increase relative to wild-type [11]: 1 fold
Fold IC50 increase relative to wild-type [12]: 1.8 fold
Fold IC50 increase relative to wild-type [13]: 0.8 fold
Fold IC50 increase relative to wild-type [14]: 0.4 fold
Fold IC50 increase relative to wild-type [15]: 0.8 fold
IC50 (µg/mL), pseudovirus neutralization [16]: > 50 µg/mL
Fold IC50 increase relative to wild-type [17]: 0.7 fold
Fold IC50 increase relative to wild-type [18]: 0.9 fold
IC50 neutralization [19]: 0.014 µg/mL
Fold IC50 increase relative to wild-type [20]: 0.3 fold
Fold IC50 increase relative to wild-type [21]: 1.1 fold
IC50 (µg/mL), pseudovirus neutralization [22]: 0.002 µg/mL
Fold IC50 increase relative to wild-type [23]: 0.6 fold
Fold IC50 increase relative to wild-type [24]: 0.7 fold
Fold IC50 increase relative to wild-type [25]: 0.6 fold
IC50 (µg/mL), pseudovirus neutralization [26]: 0.004 µg/mL
Fold IC50 increase relative to wild-type [27]: 3.3 fold
Fold IC50 increase relative to wild-type [28]: 5 fold
Fold IC50 increase relative to wild-type [29]: 0.7 fold
Fold IC50 increase relative to wild-type [30]: 0.8 fold
Fold IC50 increase relative to wild-type [31]: 0.4 fold
Fold IC50 increase relative to wild-type [32]: 0.8 fold
Median IC50 against viruses neutralized with an IC50 <50 µg/ml [33]: 0.02 µg/mL
IC50 (µg/mL), pseudovirus neutralization [34]: > 50 µg/mL
Median IC50 against viruses neutralized with an IC50 <50 µg/ml [35]: 0.04 µg/mL
Fold IC50 increase relative to wild-type [36]: 1.7 fold
Fold IC50 increase relative to wild-type [37]: 181 fold
Fold IC50 increase relative to wild-type [38]: 0.6 fold
IC50 (µg/mL), pseudovirus neutralization [39]: 0.006 µg/mL
Fold IC50 increase relative to wild-type [40]: 1 fold
Fold IC50 increase relative to wild-type [41]: 0.2 fold

B2: PGT-125 (antibody, V domains shown)
VH: QSQLQESGPRLVEASETLSLTCNVSGESTGACTYFWGWVRQAPGKGLEWIGSLSHCQSFWGSGWTFHNPSLKSRLTISLDTPKNQVFLKLTSLTAADTATYYCARFDGEVLVYNHWPKPAWVDLWGRGIPVTVSS
VL: QSALTQPPSASGSPGQSITISCNGTATNFVSWYQQFPDKAPKLIIFGVDKRPPGVPDRFSGSRSGTTASLTVSRLQTDDEAVYYCGSLVGNWDVIFGGGTTLTVL
Fold IC50 increase relative to wild-type [1]: 0.7 fold
Fold IC50 increase relative to wild-type [2]: 1.2 fold
Fold IC50 increase relative to wild-type [3]: 0.3 fold
Fold IC50 increase relative to wild-type [4]: 0.2 fold
IC50 neutralization [5]: 0.0106 µg/mL
Fold IC50 increase relative to wild-type [6]: 2.1 fold
IC50 (µg/mL), pseudovirus neutralization [7]: 0.012 µg/mL
IC50 (µg/mL), pseudovirus neutralization [8]: > 50 µg/mL
Median IC50 against viruses neutralized with an IC50 <50 µg/ml [9]: 0.01 µg/mL
Fold IC50 increase relative to wild-type [10]: 5 fold
Fold IC50 increase relative to wild-type [11]: 1.9 fold
Fold IC50 increase relative to wild-type [12]: 1.9 fold
Fold IC50 increase relative to wild-type [13]: 0.8 fold
Fold IC50 increase relative to wild-type [14]: 0.7 fold
Fold IC50 increase relative to wild-type [15]: 0.8 fold
IC50 (µg/mL), pseudovirus neutralization [16]: 12.4 µg/mL
Fold IC50 increase relative to wild-type [17]: 0.5 fold
Fold IC50 increase relative to wild-type [18]: 0.9 fold
IC50 neutralization [19]: 0.0156 µg/mL
Fold IC50 increase relative to wild-type [20]: 0.3 fold
Fold IC50 increase relative to wild-type [21]: 1.2 fold
IC50 (µg/mL), pseudovirus neutralization [22]: 0.004 µg/mL
Fold IC50 increase relative to wild-type [23]: 0.6 fold
Fold IC50 increase relative to wild-type [24]: 1.2 fold
Fold IC50 increase relative to wild-type [25]: 0.9 fold
IC50 (µg/mL), pseudovirus neutralization [26]: 0.009 µg/mL
Fold IC50 increase relative to wild-type [27]: 1.7 fold
Fold IC50 increase relative to wild-type [28]: 3.3 fold
Fold IC50 increase relative to wild-type [29]: 1.2 fold
Fold IC50 increase relative to wild-type [30]: 0.9 fold
Fold IC50 increase relative to wild-type [31]: 0.8 fold
Fold IC50 increase relative to wild-type [32]: 1.1 fold
Median IC50 against viruses neutralized with an IC50 <50 µg/ml [33]: 0.02 µg/mL
IC50 (µg/mL), pseudovirus neutralization [34]: > 50 µg/mL
Median IC50 against viruses neutralized with an IC50 <50 µg/ml [35]: 0.04 µg/mL
Fold IC50 increase relative to wild-type [36]: 1.6 fold
Fold IC50 increase relative to wild-type [37]: 2 fold
Fold IC50 increase relative to wild-type [38]: 0.5 fold
IC50 (µg/mL), pseudovirus neutralization [39]: 0.004 µg/mL
Fold IC50 increase relative to wild-type [40]: 0.5 fold
Fold IC50 increase relative to wild-type [41]: 1.2 fold

From patent US20200024330A1
